Measurements: publication PMC3554631, “Structural Basis of a Histone H3 Lysine 4 Demethylase Required for Stem Elongation in Rice” (PLoS Genetics, 2013)
Positions count from the first letter of the chain named. Numbers in names are those of the source.

B1: H394A: JMJ703 substitution mutant, Fe-binding residue (protein, UniProt Q53WJ1 1-1238, looked up, variant H394A)
Lysine-specific demethylase …: MMGVTTTLNEDTEPSIPPGFGPFATLPLWGIHNDAKPAVTHSTPVQALQSIRKDSEECQPSAAVSRSDTPCSTSGTQTCRKSLRNRPPIDYSRFEHISDEDSDVEIVEKDVSSTRRRQQLPKGVLRGCAECSDCQKVIAKWNPAGARRPVLDEAPVFYPTEEEFEDTLKYIESIRPMAEPYGICRIVPPSSWKPPCLLKDKSIWEGSKFSTRVQKVDKLQNRKSSKKGRRGGMMKRRKLAESEENSATAHTQTGMQQSPERFGFEPGPEFTLQTFQKYADDFSKQYFRKDTSMDSVPSVEDIEGEYWRIVEVPTEEIEVIYGADLETGTFGSGFPKLSPETKSDAEDKYAQSGWNLNNLPRLQGSVLSFEGGDISGVLVPWVYVGMCFSSFCWAVEDHHLYSLNYMHWGAPKLWYGVPGKDAVNLESAMRKHLPELFEEQPDLLHNLVTQFSPSLLKSEGVHVYRCVQHEGEFVLTFPRAYHAGFNCGFNCAEAVNVAPIDWLPIGHNAVELYREQARKITISHDKLLLGAAREAIRAQWDILFLKRNTADNMRWKSICGADSTIFKALKARIETELVQRKTLGVPAQSRKMDAEFDSIDRECALCYYDLHLSASGCPCCPEKYACLVHAKQLCSCDWDKRFFLFRYDVNELNILADALGGKLSAIHRWGVSDLGLSLSSCVKREKVQDSKTVRRLTDGPRRSYMSQASAVSLVSSSTSNEQKDEGNKIMKIASPQTNNVCPSVEQRKSENISPLKEPCVRNELSCTTNSDSNGLQYNGGLGGHKGSAPGLPVSSSPSFSSNVATRPISTSSVSMKIVQGLVASKSCIQASSRTGDSRSLLGEHHNRSPAMIHDGTNMKSSLESSNNSCRLIASDYNATPCHSSKDQVLVTPGTNASVVTLKDSSQVHSASSQQFVRTGPWTQSASHEASSPSTSALKPSLDPPAMKNLYGGFTQGSAHPGPPSFSNQQPNDGRLQRTSESLPGVEARARGHPTVTAQPALEIHSRNGGAQKGPRIANVVHRFKCSVEPLEIGVVLSGRLWSSSQAIFPKGFRSRVKYFSIVDPIQMAYYISEILDAGMQGPLFMVKLENCPGEVFINLSPTKCWNMVRERLNMEIRRQLNMGKSNLPTLQPPGSVDGLEMFGLLSPPIVQAIWARDRDHICTEYWRSRPHVLIEDPNNRHMLSQGPPLLALRGLIQRANRDELQVLRSLMTNSNNLDDSSRQQAAHIIEEEIAKQLC
B2: H482Y: JMJ703 substitution mutant, Fe-binding residue (protein, UniProt Q53WJ1 1-1238, looked up, variant H482Y)
Lysine-specific demethylase …: B1 Lysine-specific demethylase … with A394H, H482Y
B3: N496A: JMJ703 substitution mutant, methyl group-binding residue (protein, UniProt Q53WJ1 1-1238, looked up, variant N496A)
Lysine-specific demethylase …: B1 Lysine-specific demethylase … with A394H, N496A
B4: G376A: JMJ703 substitution mutant, methyl group-binding residue (protein, UniProt Q53WJ1 1-1238, looked up, variant G376A)
Lysine-specific demethylase …: B1 Lysine-specific demethylase … with G376A, A394H
B5: W381A: JMJ703 substitution mutant, residue conserved in H3K4 demethylases (protein, UniProt Q53WJ1 1-1238, looked up, variant W381A)
Lysine-specific demethylase …: B1 Lysine-specific demethylase … with W381A, A394H
B6: A494S: JMJ703 substitution mutant, methylation state-specificity residue (protein, UniProt Q53WJ1 1-1238, looked up, variant A494S)
Lysine-specific demethylase …: B1 Lysine-specific demethylase … with A394H, A494S
B7: K412A: JMJ703 substitution mutant, α-ketoglutaric acid-binding residue (protein, UniProt Q53WJ1 1-1238, looked up, variant K412A)
Lysine-specific demethylase …: B1 Lysine-specific demethylase … with A394H, K412A
B8: N404A: JMJ703 substitution mutant, α-ketoglutaric acid-binding residue (protein, UniProt Q53WJ1 1-1238, looked up, variant N404A)
Lysine-specific demethylase …: B1 Lysine-specific demethylase … with A394H, N404A
B9: Y321A: JMJ703 substitution mutant, α-ketoglutaric acid-binding residue (protein, UniProt Q53WJ1 1-1238, looked up, variant Y321A)
Lysine-specific demethylase …: B1 Lysine-specific demethylase … with Y321A, A394H
B10: Y383A: JMJ703 substitution mutant, methyl group-binding residue (protein, UniProt Q53WJ1 1-1238, looked up, variant Y383A)
Lysine-specific demethylase …: B1 Lysine-specific demethylase … with Y383A, A394H
B11: E396A: JMJ703 substitution mutant, methyl group-binding residue (protein, UniProt Q53WJ1 1-1238, looked up, variant E396A)
Lysine-specific demethylase …: B1 Lysine-specific demethylase … with A394H, E396A
B12: L447A: JMJ703 substitution mutant, residue conserved in H3K4 demethylases (protein, UniProt Q53WJ1 1-1238, looked up, variant L447A)
Lysine-specific demethylase …: B1 Lysine-specific demethylase … with A394H, L447A

Tests used:
[1] = biological target: c-JMJ703, catalytic core domain of JMJ703 (amino acids 139 to 498) (rice) (UniProt Q53WJ1); experiment: SPR; BIAcore 3000, 25°C; c-JMJ703 amine-coupled to a CM5 chip; peptides injected at various concentrations at 10 µL/min for 2 min in 10 mM HEPES pH 7.5, 150 mM NaCl, 0.005% Tween20; reference flow cell subtracted
[2] = biological target: FA-J3NCZ, FLAG:HA-tagged JmjN-JmjC-zinc finger region of JMJ703 (amino acids 113 to 700) (rice) (UniProt Q53WJ1); experiment: SPR; J3NCZ (FA-J3NCZ) with different concentrations of peptide; set-up for this protein not told in the methods
[3] = test system: H3K4me1; experiment: H3K4 demethylation assay in tobacco cells of JMJ703 substitution mutants, H3K4me1; type: cell-based; conditions: mutant expressed transiently in tobacco cells, immunostaining of nuclei, at least 30 nuclei per transfection
Description: (§1) The cDNA fragment of the J3NCZ region was amplified using primers FAJ3NCZ-F and FAJ3NCZ-R and then cloned into pFA121 vector modified from pBI121 (GenBank: AF485783.1), in which GUS was replaced by 2×FLAG∶2×HA tag. The pFA121-J3NCZ plasmid was transferred into Agrobacterium tumefaciens strain EHA105 cells for tobacco infection with the help of Agrobacterium cells harboring P19 plasmids. For in vivo histone demethylation assay, tobacco infection and nuclei isolation were performed as previously described. The immunostaining protocol was modified from http://sites.bio.indiana.edu/~pikaardlab. Briefly, the nucleus solution was placed on a poly-lysine coated slide, air dried, and then refixed with 4% formaldehyde in KPBS (1.28 M NaCl, 20 mM KCl, 80 mM Na2HPO4, 20 mM KH2PO4, pH7.2) containing 1% Triton X-100 for 20 min. After 3 washes with KPBS-1% Triton, slides were blocked with blocking solution (1% BSA in KPBS-1% Triton) and incubated at 37°C for 30 min. The blocking solution was washed off with KPBS-1% Triton and the slides were incubated with both anti-HA and histone méthylation specific antibodies diluted in blocking solution to 1∶300 at 4°C overnight. After washing with KPBS, slides were blocked and incubated with fluorescent-labeled antibodies at 37°C for 2 h. After washing with KPBS thrice, nuclei were stained with 5 µg/mL 4,6-diamidino-2-phenylindole (DAPI), coated with a drop of VECTASHIELD Mounting Medium (H-1000, Vector Laboratories), and then covered with a coverslip followed by confocal microscope (Leica) detection. In vitro histone demethylation assays were performed as previously described. FA-J3NCZ was purified after overexpression with Anti-FLAG M2 magnetic beads according the manufacturer's instruction (Sigma).
(§2) Supplementary file pgen.1003239.s006.tif: Figure S6 Demethylation assays for JMJ703 substitution mutants that have been produced based on the structural data. The mutant names are labeled at the top left corner of each panel. Image panels from left to right are staining by DAPI, anti-HA and anti-methylated histones, respectively. Bar = 10 µm. At least 30 nuclei that expressed JMJ703 per transfection were observed and imaged. (TIF) Click here for additional data file.

[4] = test system: H3K4me2; experiment: H3K4 demethylation assay in tobacco cells of JMJ703 substitution mutants, H3K4me2; type: cell-based; conditions: mutant expressed transiently in tobacco cells, immunostaining of nuclei, at least 30 nuclei per transfection
Description: as §1, §2

[5] = test system: H3K4me3; experiment: H3K4 demethylation assay in tobacco cells of JMJ703 substitution mutants, H3K4me3; type: cell-based; conditions: mutant expressed transiently in tobacco cells, immunostaining of nuclei, at least 30 nuclei per transfection
Description: as §1, §2

c-JMJ703, catalytic core domain of JMJ703 (amino acids 139 to 498) (rice), sequence (Q53WJ1 139-498): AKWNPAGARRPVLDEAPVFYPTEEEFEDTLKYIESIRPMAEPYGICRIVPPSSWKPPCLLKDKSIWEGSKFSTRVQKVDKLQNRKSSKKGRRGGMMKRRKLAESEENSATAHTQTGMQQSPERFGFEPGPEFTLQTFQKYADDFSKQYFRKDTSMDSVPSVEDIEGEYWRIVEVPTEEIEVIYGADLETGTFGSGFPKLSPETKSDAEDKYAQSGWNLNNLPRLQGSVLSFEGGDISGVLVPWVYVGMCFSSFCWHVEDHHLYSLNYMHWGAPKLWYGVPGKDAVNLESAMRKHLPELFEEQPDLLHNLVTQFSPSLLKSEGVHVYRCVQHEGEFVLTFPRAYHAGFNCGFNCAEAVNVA

Molecule | Kd [1] [µM] | Kd [2] [µM] | H3K4me1 demethylation activity [3] | H3K4me2 demethylation activity [4] | H3K4me3 demethylation activity [5]
H3K4me0 peptide | 76.6 |  |  |  | 
H3K4me1 peptide | 28.9 | 12.6 |  |  | 
H3K4me2 peptide | 19.3 | 15.1 |  |  | 
B1 |  |  | no | no | no
B2 |  |  | no | no | no
B3 |  |  | no | yes | yes
B4 |  |  | no | no | no
B5 |  |  | no | no | no
B6 |  |  | no | no | yes
B7 |  |  | no | no | no
B8 |  |  | yes | yes | yes
B9 |  |  | no | yes | yes
B10 |  |  | no | yes | no
B11 |  |  | no | no | no
B12 |  |  | no | no | no
